Data as given in the supplement of paper PMC9170038.

These sequences were tested on MS2 coat protein (assay: apparent KD of MS2 coat protein; higher = weaker reporter binding). Settings: Eterna round: R107; input ligand: arginine 13.2 mM.
Method in brief: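 Designed RNA switches were made by on-chip transcription from Illumina sequencing clusters and then titrated with SNAP-549-labelled MS2 coat protein. Twofold steps ran from 0.7 or 1.5 nM to 3 µM, each lasting 0.8–1.5 h early and 10–20 min late, in 100 mM Tris-HCl pH 7.5, 80 mM KCl, 4 mM MgCl2, without or with constant ligand. Apparent KD is the per-design median of normalised cluster binding-curve fits.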

Sequence	apparent KD of MS2 coat protein [nM]
GUUAUUAGAAAACUAAUAACAGUGGGUGAACGAGGACCGGUACGGCCGCCACUCGGACAUGAGGAUCACCCAUGUCCAUGUGAAA [AstrosExyTryA#4]	12.1
UCGUUUGAGGCGGCCGCCACUGGUCUCAUGGUCAACAUGAGGAUCACCCAUGUAUCUUAGUUAAGCAGGACCGGGCCUCGAGCGA [#18 Exclusion Tryptophan B]	38.9
UUCACAUGGUAUGAAUAUACAUACAAGAAACGAGGACCGGUACGGCCGCCACUCGUGCCGGAAACAUGAGGAUCACCCAUGUGUU [AK1.2 Exclusion TrypA mod IceBolt]	21.5
GCUGUAAGUGCAGAUACCAGCAGGUGAUAUUUCUAAUGACAUGAGGAUCACCCAUGUAACUGCCCUUGGCAGCUGCACUUACAGC [SSTHB #8]	48.5
UAUAUAGAUGGAAGUUCUAUAGAUGCAGAAGGAGCGUAGGAAACUACAGGUAGGUCGCUGAGGUACAUGAGGAUCACCCAUGUAG [SSArg A #20 Slice of Pi]	14.3
ACCUCAUAGGCGGCCGCCACUGUAAUGACUACGUCAAACAUGAGGAUCACCCAUGUAGUCAAUCACAGGACCGGGUCAUGGGUAG [Tryp B SS s2]	27.7
ACCUGUACGAAAAGUGCAGGACAGGAAAAUCGAGGACCGGUACGGCCGCCACUCGUAUAAACAAGUGGAUCACCCUUGUAACCUG [TrypAS 1 #AlternativeMS2 #Zipper]	458
UGUAUGUGAUCUGAUACCAGUCCAACUGGUAAAACUUGAGGAUCACCCAGGUAAAAUUGGGACCCUUGGCAGCAGAUCGCAUACU	150
AUAUAUACAUGAGGAUCACCCAUGUUAUUUCGAGGACCGGUACGGCCGCCACUCGAUAGAGUAGAAGUAACAUGUGUUAGUUGAU [JR_SSTryptoA_Sub014]	16.3
ACAUGAGGAUCACCCAUGUAAUCCUCUGAAGGAGCGAGAAAUAACUCAGGUAGGUCGCAGUUCAAAACAUGAGGAUCACCCAUGU [Exclusion Arginine A GF 9]	28.9
CUGGACAUGAGGAUCACCCAUGUAAAUCCUCGAGGACCGGUACGGCCGCCACUCGAACGAGUGGCGCGCGCGCGCGCGCGCGCGC [aIa]	23.5
ACGCUGAUUGAUUACAAUCAGCGAAAAGAUACCAGUGGGUAAUCCCACCCUUGGCAGCUUAAACAUGAGCAUCAGCCAUGUGGUA [TheoAS 15 #MS2Right #BothOrNeither #AlternativeMS2]	77.9
ACACAUGAGGAUCACCCAUGUGCAAUAGAUACCAGUGACGCGGUGCACCCUUGGCAGCUGUUGCUGAGUGAUGGUUCCCUCGGAA [Exclusion Theophylline A GF 6]	17.9
GCAUCCUAGUCGGCCGCCACUGCAAUUGUAAUACUGCUACAUGAACAUGAGGAUCACCCAUGUAGCAGGACCGGGACUAGGAUGC [(Trp1)-(TM)''-(TM)'-(Ms2)-(Trp2)_Design9]	80.4
CCAUAGGGUAAAUACGUAAUCAUAUCUGAAGGAGCGUGGAUAUACACAGGUAGGUCGCAGAAUCACAUGAGGAUCACCCAUGUCU [Same State Arginine A GF12]	28.8
ACGUGCAGCAGAAGGAGCGUCUUAAUUCUACAUGAGGAUCACCCAUGUUUACAUUGGAUAUGACAGGUAGGUCGCUGAAGUACGA [#05 Same State - Arginine B]	36.2
GGAUUACGAAAGUAGUCCAUCAAGUUCGAGCGAGGACCGGUACGGCCGCCACUCGAACAUGAGGAUCACCCAUGUAGCGAAAGCU [Tryptophan A 21]	116
UUUACAUGAGGAUCACCCAUGUGCCAUGAUACCAGACAUGAAAAUGUCCCUUGGCAGCAUGAGUGAUGCAUCCGAAAGGAUGUUU [Ivanovice]	97.2
UCCUCCUCCGGAAGGAGGAGGAGUUGCGAUACCAGCCCGGAAACGGGCCCUUGGCAGCGCACAUGAGGAUCACCCAUGUCAUGUU [#1 Exclusion - Theophylline A Attempt #7 (HarryS)]	16.7
UAAUAGAUUACGGCCGCCACUGAAGUGGACUUUAUGAGCAGGAUUCACAUGAGGAUCACCCAUGUCAGGACCGGGUACGUCCAUA [theeternabot_exclusion_MS2_Trp_B_33]	25.6
UGACGAUACCUGGAUACCAGCGACAUGAGGAUCACCCAUGUAUGAGGAUCAGCCAUGUUAUGCCCUUGGCAGCCACGAAAGUCUU [UUUMULLIN]	37.5
AGCAACAAGUCGGCCGCCACUCUUUUUACAUGAGGAUCACCCAUGUUUAUAUCAUGGUCUUAAUAGAGGACCGGGACAGUUGCAU [JR_ExcTryptoB_Sub006]	28.6
GGCCGAAACGGCCAAGGUAUCAUGACCGAUACCAGCGAAGAAGAACGCCCUUGGCAGCGGACAUGAGGAUCACCCAUGUAAAGAA	24.5
UUAUUUAACGGAAGGAGCGCGGAUAAAAUAGUGGGUAAACAUGAGGAUCACCCAUGUAAACCGCAGGUAGGUCGCCGAUAUUUAU [AstrosEXyARgB#5]	21.5
GUUGGAUUCUCGGCCGCCACUGAGAGAGUCAUGUGAACAUGAGGAUCACCCAUGUAAUAUAUAUACAGGACCGGGAGGGUUGUAA [4.K]	21.9
CUGACAGACUCGGCCGCCACUGAUAGUAGGACAUGAGGAUCACCCAUGUAAACAAACCUCAUAGCCAGGACCGGGAGUCACGAAG [Same State Tryptophan B GF 21]	31
AUAUUAAUCGGAAGGAGCGGUACAUGAGGAUCACCCAUGUGUGAAGCGAGCAGAUCCCGUUACCAGGUAGGUCGCCGAGUUAUGA [XArg-B6]	85.4
AAAAUAGAAGGAAGACAAAUAGAUACAGAAGGAGCGUAGGAAACUACAGGUAGGUCGCUGGAAAACAUGAGGAUCACCCAUGUAG [SSArg A #22 Slice of Pi Skeleton]	31.5
GCACCAGGUACGGAUACCAGCUGCUCGAGAUACAUGAGGAUCACCCAUGUGACCUGGUUUAGCCCUUGGCAGCUGUACCUGGUGC [#15 Same State - Theophylline B]	16.4

Same assay, conditions: Eterna round: R107; input ligand: none

Sequence	apparent KD of MS2 coat protein [nM]
UCGUUUGAGGCGGCCGCCACUGGUCUCAUGGUCAACAUGAGGAUCACCCAUGUAUCUUAGUUAAGCAGGACCGGGCCUCGAGCGA [#18 Exclusion Tryptophan B]	72.7
UAUAUAGAUGGAAGUUCUAUAGAUGCAGAAGGAGCGUAGGAAACUACAGGUAGGUCGCUGAGGUACAUGAGGAUCACCCAUGUAG [SSArg A #20 Slice of Pi]	26.4
ACCUGUACGAAAAGUGCAGGACAGGAAAAUCGAGGACCGGUACGGCCGCCACUCGUAUAAACAAGUGGAUCACCCUUGUAACCUG [TrypAS 1 #AlternativeMS2 #Zipper]	664
UGUAUGUGAUCUGAUACCAGUCCAACUGGUAAAACUUGAGGAUCACCCAGGUAAAAUUGGGACCCUUGGCAGCAGAUCGCAUACU	316
ACAUGAGGAUCACCCAUGUAAUCCUCUGAAGGAGCGAGAAAUAACUCAGGUAGGUCGCAGUUCAAAACAUGAGGAUCACCCAUGU [Exclusion Arginine A GF 9]	43.3
CUGGACAUGAGGAUCACCCAUGUAAAUCCUCGAGGACCGGUACGGCCGCCACUCGAACGAGUGGCGCGCGCGCGCGCGCGCGCGC [aIa]	54.3
ACGCUGAUUGAUUACAAUCAGCGAAAAGAUACCAGUGGGUAAUCCCACCCUUGGCAGCUUAAACAUGAGCAUCAGCCAUGUGGUA [TheoAS 15 #MS2Right #BothOrNeither #AlternativeMS2]	119
CCAUAGGGUAAAUACGUAAUCAUAUCUGAAGGAGCGUGGAUAUACACAGGUAGGUCGCAGAAUCACAUGAGGAUCACCCAUGUCU [Same State Arginine A GF12]	41.2
ACGUGCAGCAGAAGGAGCGUCUUAAUUCUACAUGAGGAUCACCCAUGUUUACAUUGGAUAUGACAGGUAGGUCGCUGAAGUACGA [#05 Same State - Arginine B]	30
GGCCGAAACGGCCAAGGUAUCAUGACCGAUACCAGCGAAGAAGAACGCCCUUGGCAGCGGACAUGAGGAUCACCCAUGUAAAGAA	16
UUAUUUAACGGAAGGAGCGCGGAUAAAAUAGUGGGUAAACAUGAGGAUCACCCAUGUAAACCGCAGGUAGGUCGCCGAUAUUUAU [AstrosEXyARgB#5]	43.1
GUUGGAUUCUCGGCCGCCACUGAGAGAGUCAUGUGAACAUGAGGAUCACCCAUGUAAUAUAUAUACAGGACCGGGAGGGUUGUAA [4.K]	20.2
CUGACAGACUCGGCCGCCACUGAUAGUAGGACAUGAGGAUCACCCAUGUAAACAAACCUCAUAGCCAGGACCGGGAGUCACGAAG [Same State Tryptophan B GF 21]	45.6
AUAUUAAUCGGAAGGAGCGGUACAUGAGGAUCACCCAUGUGUGAAGCGAGCAGAUCCCGUUACCAGGUAGGUCGCCGAGUUAUGA [XArg-B6]	213
AAAAUAGAAGGAAGACAAAUAGAUACAGAAGGAGCGUAGGAAACUACAGGUAGGUCGCUGGAAAACAUGAGGAUCACCCAUGUAG [SSArg A #22 Slice of Pi Skeleton]	40.6

Same assay, conditions: Eterna round: R107; input ligand: theophylline 20 uM

Sequence	apparent KD of MS2 coat protein [nM]
GUUAUUAGAAAACUAAUAACAGUGGGUGAACGAGGACCGGUACGGCCGCCACUCGGACAUGAGGAUCACCCAUGUCCAUGUGAAA [AstrosExyTryA#4]	15.8
UCGUUUGAGGCGGCCGCCACUGGUCUCAUGGUCAACAUGAGGAUCACCCAUGUAUCUUAGUUAAGCAGGACCGGGCCUCGAGCGA [#18 Exclusion Tryptophan B]	105
UUCACAUGGUAUGAAUAUACAUACAAGAAACGAGGACCGGUACGGCCGCCACUCGUGCCGGAAACAUGAGGAUCACCCAUGUGUU [AK1.2 Exclusion TrypA mod IceBolt]	41.2
GCUGUAAGUGCAGAUACCAGCAGGUGAUAUUUCUAAUGACAUGAGGAUCACCCAUGUAACUGCCCUUGGCAGCUGCACUUACAGC [SSTHB #8]	32.1
UAUAUAGAUGGAAGUUCUAUAGAUGCAGAAGGAGCGUAGGAAACUACAGGUAGGUCGCUGAGGUACAUGAGGAUCACCCAUGUAG [SSArg A #20 Slice of Pi]	40.5
ACCUCAUAGGCGGCCGCCACUGUAAUGACUACGUCAAACAUGAGGAUCACCCAUGUAGUCAAUCACAGGACCGGGUCAUGGGUAG [Tryp B SS s2]	45.6
ACCUGUACGAAAAGUGCAGGACAGGAAAAUCGAGGACCGGUACGGCCGCCACUCGUAUAAACAAGUGGAUCACCCUUGUAACCUG [TrypAS 1 #AlternativeMS2 #Zipper]	1060
UGUAUGUGAUCUGAUACCAGUCCAACUGGUAAAACUUGAGGAUCACCCAGGUAAAAUUGGGACCCUUGGCAGCAGAUCGCAUACU	597
AUAUAUACAUGAGGAUCACCCAUGUUAUUUCGAGGACCGGUACGGCCGCCACUCGAUAGAGUAGAAGUAACAUGUGUUAGUUGAU [JR_SSTryptoA_Sub014]	32.8
ACAUGAGGAUCACCCAUGUAAUCCUCUGAAGGAGCGAGAAAUAACUCAGGUAGGUCGCAGUUCAAAACAUGAGGAUCACCCAUGU [Exclusion Arginine A GF 9]	52.6
CUGGACAUGAGGAUCACCCAUGUAAAUCCUCGAGGACCGGUACGGCCGCCACUCGAACGAGUGGCGCGCGCGCGCGCGCGCGCGC [aIa]	142
ACGCUGAUUGAUUACAAUCAGCGAAAAGAUACCAGUGGGUAAUCCCACCCUUGGCAGCUUAAACAUGAGCAUCAGCCAUGUGGUA [TheoAS 15 #MS2Right #BothOrNeither #AlternativeMS2]	114
ACACAUGAGGAUCACCCAUGUGCAAUAGAUACCAGUGACGCGGUGCACCCUUGGCAGCUGUUGCUGAGUGAUGGUUCCCUCGGAA [Exclusion Theophylline A GF 6]	57.6
GCAUCCUAGUCGGCCGCCACUGCAAUUGUAAUACUGCUACAUGAACAUGAGGAUCACCCAUGUAGCAGGACCGGGACUAGGAUGC [(Trp1)-(TM)''-(TM)'-(Ms2)-(Trp2)_Design9]	185
